62 molecules from patent US20200087364A1 (IMMATICS BIOTECHNOLOGIES, published 2020) can be followed below.

For this experiment, the target named is T1, HLA-A*01:01 (human).
T1 construct: MHC class I monomer first loaded with a UV-sensitive peptide (not identified) that is cleaved by UV irradiation and exchanged for the tested peptide; captured on streptavidin plates, detected with anti-β2m; also called peptide-receptive MHC molecules
The experiment is described as follows: UV-ligand exchange, anti-b2m ELISA. The text has this: Candidate peptides for T cell based therapies according to the present invention were further tested for their MHC binding capacity (affinity). The individual peptide-MHC complexes were produced by UV-ligand exchange, where a UV-sensitive peptide is cleaved upon UV-irradiation and exchanged with the peptide of interest as analyzed. Only peptide candidates that can effectively bind and stabilize the peptide-receptive MHC molecules prevent dissociation of the MHC complexes. To determine the yield of the exchange reaction, an ELISA was performed based on the detection of the light chain (β2m) of stabilized MHC complexes. The assay was performed as generally described in Rodenko et al. (Rodenko et al., 2006)
96 well MAXISorp plates (NUNC) were coated over night with 2 ug/ml streptavidin in PBS at room temperature, washed 4× and blocked for 1 h at 37° C. in 2% BSA containing blocking buffer. Refolded HLA-A*02:01/MLA-001 monomers served as standards, covering the range of 15-500 ng/ml. Peptide-MHC monomers of the UV-exchange reaction were diluted 100-fold in blocking buffer. Samples were incubated for 1 h at 37° C., washed four times, incubated with 2 ug/ml HRP conjugated anti-β2m for 1 h at 37° C., washed again and detected with TMB solution that is stopped with […]. Absorption was measured at 450 nm.
As for APDEVVALL, the peptide exchange yield is 20 to 50%.

On to SIEIDHTQY, for which the peptide exchange yield fell in the range of 20 to 50%.

Molecule LTDSFLLRF came in with a peptide exchange yield greater than 75%.

For the molecule ASDDFRSKY, the peptide exchange yield lay within 50 to 75%.

Turning to TDVERIKDTY, the peptide exchange yield fell in the range of 50 to 75%.

Molecule NVKHFLNDLY yielded a peptide exchange yield of 50 to 75%.

Regarding GYVCNACGLY, the peptide exchange yield lay in the range of 20 to 50%.

In turn, DTLEAATSLY had a peptide exchange yield of 20 to 50%.

The molecule YRDPVFVSL displayed a peptide exchange yield of 20 to 50%.

The molecule GIEMTYETY yielded a peptide exchange yield of 20 to 50%.

ETDWGLLKGHTY: the peptide exchange yield is greater than 75%.

The molecule DTTSHTYLQY displayed a peptide exchange yield of 20 to 50%.

With LPSPAATIWDY, the peptide exchange yield was in the range of 50 to 75%.

In turn, KSEMNVNMKY returned a peptide exchange yield greater than 75%.

As for YTDLTTIQV, the peptide exchange yield is greater than 75%.

For RPSSVLTIY, the peptide exchange yield was 50 to 75%.

EVLDSLLAQY yielded a peptide exchange yield of 20 to 50%.

RYLNIVHATQLY had a peptide exchange yield of 20 to 50%.

Turning to DCMDTEGSYM, the peptide exchange yield was in the range of 20 to 50%.

KSFDDIAKY: the peptide exchange yield is 20 to 50%.

In turn, LMDEGAVLTL gave a peptide exchange yield of 20 to 50%.

In the case of CVIETFHKY, the peptide exchange yield was 50 to 75%.

As to SLMVASLTY, the peptide exchange yield was 20 to 50%.

Turning to DLKIDLAAQY, the peptide exchange yield fell in the range of 20 to 50%.

In the case of GVGFTELEY, the peptide exchange yield was in the range of 50 to 75%.

Take LSDIDSRYI: the peptide exchange yield fell in the range of 20 to 50%.

FLFNDALLY yielded a peptide exchange yield greater than 75%.

Molecule MTEGSTVNTEY came in with a peptide exchange yield greater than 75%.

In turn, DTDPLKAAGL gave a peptide exchange yield of 10 to 20%.

NLDHYTNAY: the peptide exchange yield fell in the range of 50 to 75%.

For the molecule STDPNIVRK, the peptide exchange yield lay within 50 to 75%.

With AQEAAVFLTLY, the peptide exchange yield is 50 to 75%.

In turn, NAVDVVPSSF displayed a peptide exchange yield of 10 to 20%.

Molecule GSPDAVVSY came in with a peptide exchange yield of 10 to 20%.

HAFESNNFIY yielded a peptide exchange yield of 20 to 50%.

For the molecule RINSATGQY, the peptide exchange yield is 20 to 50%.

As for LTSEDTGAY, the peptide exchange yield lay within 50 to 75%.

In the case of RTDEGDNRVW, the peptide exchange yield is 20 to 50%.

AMMQEAQLAY: the peptide exchange yield fell in the range of 50 to 75%.

Molecule MTDVFIDY had a peptide exchange yield of 50 to 75%.

ESAPKEVSRY gave a peptide exchange yield of 20 to 50%.

Consider SSERGSPIEKY, for which the peptide exchange yield lay within 50 to 75%.

As for FTAQLQLY, the peptide exchange yield was 50 to 75%.

Consider WELDSLEY, for which the peptide exchange yield was 20 to 50%.

YLESHGLAY: the peptide exchange yield was greater than 75%.

Consider KTELETALYY, for which the peptide exchange yield fell in the range of 50 to 75%.

In the case of LLPLLVMAY, the peptide exchange yield is 20 to 50%.

Take KPTEDSANVY: the peptide exchange yield fell in the range of 50 to 75%.

For the molecule GTNLPTLLW, the peptide exchange yield was in the range of 10 to 20%.

In the case of VTDIDELGK, the peptide exchange yield lay within 50 to 75%.

AILHHLYFY had a peptide exchange yield of 10 to 20%.

Take VMDTLGLFY: the peptide exchange yield is greater than 75%.

As to NSMLDPLVY, the peptide exchange yield is greater than 75%.

As for ARLEGEIATY, the peptide exchange yield lay in the range of 20 to 50%.

With VLDSLLAQY, the peptide exchange yield was greater than 75%.

VTKYIAGPY: the peptide exchange yield was in the range of 20 to 50%.

With QITPKHNGLY, the peptide exchange yield fell in the range of 20 to 50%.

DVERIKDTY registered a peptide exchange yield of 20 to 50%.

The molecule IVADDTVY came in with a peptide exchange yield of 50 to 75%.

For the molecule LSDNAANRY, the peptide exchange yield lay in the range of 50 to 75%.

In turn, SMIRVGTNY returned a peptide exchange yield of 20 to 50%.

VAEPPVVCSY: the peptide exchange yield is 20 to 50%.
